Experimental data reported in patent US20240066131A1 (Protagonist Therapeutics, Inc., priority 2020, published 2024).
Starred links: 1 amine or outer side, 2 acyl side, 3 side chain; linkers in the order of their positions; H or OH if unused. Non-standard residues stand in square brackets, D forms with d. Residues, ends and D or L forms follow the SMILES beside them. Groups on a side chain read outwards from the residue. No end group written: not given here. *: point of attachment. N_Butyl_Phe = CCCCN([C@@H](Cc1ccccc1)C(=O)[*:2])[*:1]; Ala(1H-tetrazol-5-yl) = N[C@@H](Cc1nnn[nH]1)C(=O)O; X14 = O=C(CN(CCC(c1ccccc1)c1ccccc1)[*:1])[*:2]; C18 diacid = O=C(O)CCCCCCCCCCCCCCCCC(=O)*; X8 = O=C([C@H](CCc1nn[nH]n1)N[*:1])[*:2]; Dip = N[C@H](C(=O)O)C(c1ccccc1)c1ccccc1; γGlu = O=C(O)[C@H](CCC(=O)[*:2])N[*:1]; His(τ-Me) = Cn1cnc(C[C@H](N)C(=O)O)c1; Palmitoyl = CCCCCCCCCCCCCCCC(=O)*; Myristoyl = CCCCCCCCCCCCCC(=O)*; β3hF = N[C@H](CC(=O)O)Cc1ccccc1; NMeK = CN[C@@H](CCCCN)C(=O)O; hLeu = CC(C)CC[C@H](N)C(=O)O; Lauroyl = CCCCCCCCCCCC(=O)*; Isovaleryl = CC(C)CC(=O)*; AEEA = NCCOCCOCC(=O)O; Propionyl = CCC(=O)*; Ahx = NCCCCCC(=O)O; βAla = NCCC(=O)O

T1: human ferroportin (SLC40A1) fused in frame with GFP, stably expressed in HEK293 cells (human, UniProt Q9NP59 1-571)
T1 sequence (looked up): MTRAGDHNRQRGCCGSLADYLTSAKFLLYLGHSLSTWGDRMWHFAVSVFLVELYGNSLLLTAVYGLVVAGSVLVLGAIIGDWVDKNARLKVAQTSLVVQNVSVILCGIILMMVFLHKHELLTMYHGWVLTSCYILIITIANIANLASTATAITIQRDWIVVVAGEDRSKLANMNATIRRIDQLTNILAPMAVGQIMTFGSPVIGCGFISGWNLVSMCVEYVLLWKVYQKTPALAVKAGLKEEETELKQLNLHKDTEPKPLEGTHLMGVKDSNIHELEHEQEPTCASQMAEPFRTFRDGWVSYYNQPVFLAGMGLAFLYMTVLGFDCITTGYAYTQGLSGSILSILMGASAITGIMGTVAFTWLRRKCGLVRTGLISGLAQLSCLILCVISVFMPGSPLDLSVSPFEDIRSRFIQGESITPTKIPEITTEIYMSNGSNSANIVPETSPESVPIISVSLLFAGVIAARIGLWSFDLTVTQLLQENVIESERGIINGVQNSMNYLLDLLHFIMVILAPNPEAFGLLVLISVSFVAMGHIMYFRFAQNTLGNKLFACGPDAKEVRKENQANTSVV

T2: ferroportin (Homo sapiens, UniProt Q9NP59)
T2 sequence (Q9NP59 1-571): T1 sequence (looked up)

B1: Isovaleric Acid-E-T-H-F-P-A-I-[Lys(Ahx_C14_acid)]-F-E-P-R-S-K-G-[(D)Ala]-NH2 (peptide)
peptide: Isovaleryl-ETHFPAIK([Ahx-Myristoyl])FEPRSKG[dA]-NH2
SMILES: CCCCCCCCCCCCCC(=O)NCCCCCC(=O)NCCCC[C@H](NC(=O)[C@@H](NC(=O)[C@H](C)NC(=O)[C@@H]1CCCN1C(=O)[C@H](Cc1ccccc1)NC(=O)[C@H](Cc1c[nH]cn1)NC(=O)[C@@H](NC(=O)[C@H](CCC(=O)O)NC(=O)CC(C)C)[C@@H](C)O)[C@@H](C)CC)C(=O)N[C@@H](Cc1ccccc1)C(=O)N[C@@H](CCC(=O)O)C(=O)N1CCC[C@H]1C(=O)N[C@@H](CCCNC(=N)N)C(=O)N[C@@H](CO)C(=O)N[C@@H](CCCCN)C(=O)NCC(=O)N[C@H](C)C(N)=O
B2: Isovaleric Acid-E-T-H-F-P-A-I-[Lys(Ahx_C14_acid)]-F-E-P-R-[(D)Ser]-NH2 (peptide)
peptide: Isovaleryl-ETHFPAIK([Ahx-Myristoyl])FEPR[dS]-NH2
SMILES: CCCCCCCCCCCCCC(=O)NCCCCCC(=O)NCCCC[C@H](NC(=O)[C@@H](NC(=O)[C@H](C)NC(=O)[C@@H]1CCCN1C(=O)[C@H](Cc1ccccc1)NC(=O)[C@H](Cc1c[nH]cn1)NC(=O)[C@@H](NC(=O)[C@H](CCC(=O)O)NC(=O)CC(C)C)[C@@H](C)O)[C@@H](C)CC)C(=O)N[C@@H](Cc1ccccc1)C(=O)N[C@@H](CCC(=O)O)C(=O)N1CCC[C@H]1C(=O)N[C@@H](CCCNC(=N)N)C(=O)N[C@H](CO)C(N)=O

What follows are molecules tested against T1, human ferroportin (SLC40A1) fused in … (assay: cell-based or functional assay). Conditions: not given.

Row | Molecule | FPN IC50 [nM]
1 | B1 | 1070
2 | Isovaleryl-LTH[Dip]PK([βAla-Palmitoyl])[N_Butyl_Phe] [Isovaleric Acid-L-T-H-[Dpa]-P-[Lys(bAla_Palm)]-N_Butyl_Phe] | 469
3 | Isovaleryl-ETHFPAIK([γGlu-Myristoyl])FEPRSKG[dA]-NH2 [Isovaleric Acid-E-T-H-F-P-A-I-[Lys(IsoGlu_C14_acid)]-F-E-P-R-S-K-G-[(D)Ala]-NH2] | 5730
4 | Heptanoic_Acid-LTH[Dip]PK([Ahx-Palmitoyl])[N_Butyl_Phe] [Heptanoic_Acid-L-T-H-[Dpa]-P-[Lys(Ahx_Palm)]-N_Butyl_Phe] | > 3000
5 | B2 | 1160
6 | Cyclohexanoic_Acid-LTH[Dip]PK([Ahx-Palmitoyl])[N_Butyl_Phe] [Cyclohexanoic_Acid-L-T-H-[Dpa]-P-[Lys(Ahx_Palm)]-N_Butyl_Phe] | 3380
7 | Isovaleryl-LTH[Dip]PK([γGlu-Palmitoyl])[N_Butyl_Phe] [Isovaleric Acid-L-T-H-[Dpa]-P-[Lys(IsoGlu_Palm)]-N_Butyl_Phe] | 222
8 | Isovaleryl-ETHFPAIK([γGlu-C10 acid])FEPRSKGAK-NH2 [Isovaleric Acid-E-T-H-F-P-A-I-[Lys(IsoGlu_C10_acid)]-F-E-P-R-S-K-G-A-K-NH2] | 3310
9 | Isovaleryl-LTH[Dip]P[N_Butyl_Phe] [Isovaleric Acid-L-T-H-[Dpa]-P-N_Butyl_Phe] | 1040
10 | Propionyl-LTH[Dip]PK([Ahx-Palmitoyl])[N_Butyl_Phe] [[Propionic_acid]-L-T-H-[Dpa]-P-[Lys(Ahx_Palm)]-N_Butyl_Phe] | 218
11 | Isovaleryl-[meL]TH[Dip]P[NMeK]([Ahx-Palmitoyl])-N_Butyl_Phe [Isovaleric Acid-meL-T-H-[Dpa]-P-NMe[Lys(Ahx_Palm)]-N_Butyl_Phe] | 71
12 | Isovaleryl-LTH[Dip]P[NMeK]([Ahx-Palmitoyl])[N_Butyl_Phe] [Isovaleric Acid-L-T-H-[Dpa]-P-NMe[Lys(Ahx_Palm)]-N_Butyl_Phe] | 62.6
13 | Isovaleryl-ETHFPAIK([γGlu-Myristoyl])FEPRSKGA[dK]-NH2 [Isovaleric Acid-E-T-H-F-P-A-I-[Lys(IsoGlu_C14_acid)]-F-E-P-R-S-K-G-A-[(D)Lys]-NH2] | 718
14 | Isovaleryl-ETHFPAIK([γGlu-Myristoyl])FEPRSKGAK-NH2 [Isovaleric Acid-E-T-H-F-P-A-I-[Lys(IsoGlu_C14_acid)]-F-E-P-R-S-K-G-A-K-NH2] | 822
15 | Octanoic_Acid-LTH[Dip]PK([Ahx-Palmitoyl])-N_Butyl_Phe [Octanoic_Acid-L-T-H-[Dpa]-P-[Lys(Ahx_Palm)]-N_Butyl_Phe] | 1020
16 | Cyclohexanecarboxylic_Acid-LTH[Dip]PK([Ahx-Palmitoyl])[N_Butyl_Phe] [Cyclohexanecarboxylic_Acid-L-T-H-[Dpa]-P-[Lys(Ahx_Palm)]-N_Butyl_Phe] | 3300
17 | Isovaleryl-ETHFPAIK([γGlu-Myristoyl])FEPR[dS]-NH2 [Isovaleric Acid-E-T-H-F-P-A-I-[Lys(IsoGlu_C14_acid)]-F-E-P-R-[(D)Ser]-NH2] | 3680
18 | Isovaleryl-ETHFPAIK([γGlu-C12 acid])FEPRSKGAK-NH2 [Isovaleric Acid-E-T-H-F-P-A-I-[Lys(IsoGlu_C12_acid)]-F-E-P-R-S-K-G-A-K-NH2] | 4490
19 | Isovaleryl-LTH[Dip]K([Ahx-Palmitoyl])[N_Butyl_Phe] [Isovaleric Acid-L-T-H-[Dpa]-[Lys(Ahx_Palm)]-N_Butyl_Phe] | > 3000
20 | Isovaleryl-LTH[Dip]PK([AEEA-AEEA-γGlu-C18 diacid])[N_Ethyl_Nap] [Isovaleric Acid-L-T-H-[Dpa]-P-[Lys(1PEG2_1PEG2_IsoGlu_C18_Diacid)]-N_Ethyl_Nap] | 1440

The molecules below were run against T2, ferroportin (assay: FPN activity assay: internalization/degradation of ferroportin-GFP in stably transfected HEK293 cells (loss of GFP fluorescence)). Conditions: Table 6A; read-out: FPN EC50.
Type: cell-based
Procedure: Following internalization, the ferroporin protein is degraded.
A retro inverse peptide is a peptide with a reversed sequence in all D amino acids. An example is that Hy-Glu-Thr-His-NH2 becomes Hy-DHis-DThr-DGlu-NH2. The EC50 of these reference compounds for ferroportin internalization/degradation was determined according to the FPN activity assay described above. These peptides served as control standards.

Row | Molecule | DC50 [nM]
21 | CCCCCCCCCCCC(=O)NCCCCCC(=O)NCCCC[C@H](NC(=O)[C@@H](NC(=O)[C@H](C)NC(=O)[C@@H]1CCCN1C(=O)[C@@H](NC(=O)[C@H](Cc1c[nH]cn1)NC(=O)[C@@H](NC(=O)[C@H](CCC(=O)O)NC(=O)CC(C)C)[C@@H](C)O)C(c1ccccc1)c1ccccc1)[C@@H](C)CC)C(=O)N[C@H](CC(N)=O)Cc1ccccc1 [compound 105] (Isovaleryl-ETH[Dip]PAIK([Ahx-Lauroyl])[β3hF]-NH2) | 109
22 | CC[C@H](C)[C@H](NC(=O)[C@H](C)NC(=O)[C@@H]1CCCN1C(=O)[C@@H](NC(=O)[C@H](Cc1cn(C)cn1)NC(=O)[C@@H](NC(=O)[C@H](CCc1nn[nH]n1)NC(=O)CC(C)C)[C@@H](C)O)C(c1ccccc1)c1ccccc1)C(=O)N[C@@H](CCCCNC(C)=O)C(=O)N[C@H](CC(=O)N[C@H](CCCCN)C(=O)N[C@@H](C)C(N)=O)Cc1ccccc1 [compound 40] (Isovaleryl-[X8]T[His(τ-Me)][Dip]PAIK(Ac)[β3hF][dK]A-NH2) | > 3000
23 | CCCCCCCCCCCCCCCC(=O)NCCCCCC(=O)NCCCC[C@H](NC(=O)[C@@H](NC(=O)[C@H](CCC(C)C)NC(=O)[C@@H]1CCCN1C(=O)[C@@H](NC(=O)[C@H](Cc1c[nH]cn1)NC(=O)[C@@H](NC(=O)[C@H](CCC(=O)O)NC(=O)CC(C)C)[C@@H](C)O)C(c1ccccc1)c1ccccc1)[C@@H](C)CC)C(=O)N[C@H](CC(N)=O)Cc1ccccc1 [compound 121] (Isovaleryl-ETH[Dip]P[hLeu]IK([Ahx-Palmitoyl])[β3hF]-NH2) | 150
24 | CCCCCCCCCCCCCCCC(=O)NCCCCCC(=O)NCCCC[C@H](NC(=O)[C@@H](NC(=O)[C@@H](NC(=O)[C@@H]1CCCN1C(=O)[C@@H](NC(=O)[C@H](Cc1c[nH]cn1)NC(=O)[C@@H](NC(=O)[C@H](Cc1nn[nH]n1)NC(=O)CC(C)C)[C@@H](C)O)C(c1ccccc1)c1ccccc1)[C@@H](C)CC)[C@@H](C)CC)C(=O)N[C@H](CC(N)=O)Cc1ccccc1 [compound 113] (Isovaleryl-[Ala(1H-tetrazol-5-yl)]TH[Dip]PIIK([Ahx-Palmitoyl])[β3hF]-NH2) | 86.8

Same assay, conditions: ferroportin-GFP HEK293 cells, compound incubated at least 18 hours; read-out: FPN IC50

Row | Molecule | DC50 [nM]
25 | CCCCCCCCCCCC(=O)NCCCCCC(=O)NCCCC[C@H](NC(=O)[C@@H](NC(=O)[C@H](C)NC(=O)[C@@H]1CCCN1C(=O)[C@H](Cc1ccccc1)NC(=O)[C@H](Cc1c[nH]cn1)NC(=O)[C@@H](NC(=O)[C@H](CCC(=O)O)NC(=O)CC(C)C)[C@@H](C)O)[C@@H](C)CC)C(=O)N[C@@H](Cc1ccccc1)C(=O)N[C@@H](CCC(=O)O)C(=O)N1CCC[C@H]1C(=O)N[C@@H](CCCNC(=N)N)C(=O)N[C@@H](CO)C(=O)N[C@@H](CCCCN)C(=O)NCC(=O)N[C@@H](C)C(=O)N[C@@H](CCCCN)C(N)=O [compound 243] (Isovaleryl-ETHFPAIK([Ahx-Lauroyl])FEPRSKGAK-NH2) | 1070
26 | CCCCCCCCCCCCCCCC(=O)NCCCCCC(=O)NCCCC[C@H](NC(C)=O)C(=O)N[C@H](C(=O)N[C@@H](Cc1c[nH]cn1)C(=O)N[C@H](C(=O)N1CCC[C@H]1C(=O)N[C@@H](C)C(=O)N[C@H](C(=O)N[C@H](CCCCN)C(=O)N[C@H](CC(N)=O)Cc1ccccc1)[C@@H](C)CC)C(c1ccccc1)c1ccccc1)[C@@H](C)O [compound 201] (Ac-K([Ahx-Palmitoyl])TH[Dip]PAI[dK][β3hF]-NH2) | > 3000

Same assay, conditions: read-out: FPN EC50; Table 6A

Row | Molecule | DC50 [nM]
27 | CCCCCCCCCCCCCCCC(=O)NCCCCCC(=O)NCCCC[C@H](NC(=O)[C@@H](NC(=O)[C@H](C)NC(=O)[C@@H]1CCCN1C(=O)CN(CCC(c1ccccc1)c1ccccc1)C(=O)[C@H](Cc1c[nH]cn1)NC(=O)[C@@H](NC(=O)[C@H](CCC(=O)O)NC(=O)CC(C)C)[C@@H](C)O)[C@@H](C)CC)C(=O)N[C@H](CC(N)=O)Cc1ccccc1 [compound 89] (Isovaleryl-ETH[X14]PAIK([Ahx-Palmitoyl])[β3hF]-NH2) | > 3000
